Assay: yeast display, Sf9 membrane polyspecificity reagent, FACS + sequencing; frameworks hold sequencing errors
Outline: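 Sorting gates, low and high (top ~1%), were placed on anti-HA fluorescence to track expression and on streptavidin fluorescence to track reagent binding. A clone's polyreactivity label is taken from the gate it came out of. The reagent was 10% biotinylated, detergent-solubilized Sf9 membrane, applied for 1 hour at 4 °C to galactose-induced yeast display cells.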
In the case of “QVQLVESGGGLVQAGGSLRLSCAASGSTFGHYARGWYRQATGKERELVAAISFTGARTYYADSVKGRFTISRDNAKNTVYLQMNSLKPEDTAVYYCIARGDYRISDYWGQGTQVTVSS”, the “polyreactivity (PSR sort gate)” value is reported as “high polyreactivity”. With “QVQLVESGGGLVQAGGSLRLSCAASGRTFVRYAMGWYRQAPGKERELVAAITSGGSTYADSVKGRFTISRDNAKNTVYLQMNSLKPEDTAVYYCAARRYPSYGSWGQGTQVTVSS” the “polyreactivity (PSR sort gate)” value was “low polyreactivity”. With “QVQLVESGGGLGQAGGSLRLSCAASGFTFTYNDMGWYRQAPGKEREFVAAISSTGGSTYYADSVKGRFTISRDNAKNTVYLQMNSLKPEDTAVYYCAAEDSWYWDAWFDYWGQGTQVTVSS” the “polyreactivity (PSR sort gate)” value was “low polyreactivity”. For “QVQLVESGGGLVQAGGSLRLSCAASGRIFYSYAMGWYRQAPGKEREFVAAIRWSGGRTYYADSVKGRFTISRDNAKNTVYLQMNSLKPEDTAVYYCAAELYGNNFWDGTTGYDYWGQGTEVTVSS”, the “polyreactivity (PSR sort gate)” value was “low polyreactivity”. For “QGQLVESGGGLVQAGGILRLRCAACGSTILVYAMGWYRHAPGQERELVAFIDNGGDTYYADSVKGRFTISRDNAKNTVYLQMYSLKPEDTEVYYCADDLSYLGYWEYDYWGQGTQVTVSS”, the “polyreactivity (PSR sort gate)” value was “low polyreactivity”. In the case of “QVQLVESGGGLVQAGGSLRLSCAASGGTIAYNAMGWYRQAPWKERELVAAISSSGGRTYYADSVKGRFTITRDNAKNTVYLQMNRLKPEDTAVYYCATPVTNGFDYWGQGTQVTVSS”, the “polyreactivity (PSR sort gate)” value is reported as “high polyreactivity”. For “QVQLVESGGGLVQAGASLRLSCAASGFTFTPYAMGWYRQAPGKERELVAGITSGVGRKYADSVKGRFTISRDNAKNTVYLQMNSLKPEDTAVYFCAARYDHWGQGTQVTVSS”, the “polyreactivity (PSR sort gate)” value was “high polyreactivity”. For “QVQLVESGGGLVQAGGSLRLSCAASGRIFYWNVMGWYRQAPGKERELVAAISSSGASTSYADSEKGRFTISRDNEKNTVYLQMNSLKPEVTAGYYCDARTRRNYRQYNYWGQATQVTVSS”, the “polyreactivity (PSR sort gate)” value was “high polyreactivity”. For “QVQLVESGGGLVQAGGSLRLSCAASGSTFTLYVMGWYRQATGKERELVAAISSNGGRTYYADSVKGRFTISRDNAKNTVYLQMTSLKPEDTAVYYCAKLVSLAGRIYGYWGQGTQVTVSS”, the “polyreactivity (PSR sort gate)” value was “high polyreactivity”. For “QVQLVESGGGLVQAGGSLRLSCAASGGIFSTYTMGWYRQAPGKERELVAAISQSGGTTYYADSVKGRFTISRDNAKNTVYLQMNSLKPEDTAVYYCAAEPTQADYDYWGQGTQVTVSS”, the “polyreactivity (PSR sort gate)” value was “low polyreactivity”. With “QVQLVESGGGLVQAGGSLRLSCAASGYIFNSNTMGWYRPAPGKERELVAAITSSGGRTNYADSVKGRFTISRDNAKNTVYLQMNSLKPEDTAVYYCATRVYYRAGRYKYDYWGQGTQVTVSS” the “polyreactivity (PSR sort gate)” value was “high polyreactivity”. With “QVQLVESGGGLVQAGGSLRLSCAASGRTFQFYPMGWYRQAPGKERELVAAIDLRGGSTYYADSVKGRFTISRDNAKNTVYLQMNSLKPEDTAVYYCNADRYTGRDGEQSLDYWGQGTQVTVSS” the “polyreactivity (PSR sort gate)” value was “low polyreactivity”. In the case of “QVQLLESGGGLVQAGGSLRLSCAASGRTFRVYARGWYRQAPGKEREFVATISVRGGSTYYAYSVKGRFTISRDNAKITVYLQMNSLKPVDTAVYYCARSSRGNLDYWGQGTQVSVSS”, the “polyreactivity (PSR sort gate)” value is reported as “low polyreactivity”. With “QVQLVESGGGIVQAGGSLRLSCAASGFIIGYNAKGWYRQAPGKETELVAAITSRGVRTYYADCVKWRFTISRDNAKNTVYLQMNSLKPEDTAVYYCAKASRGYRSPYGSIGYYYWGQGTQVTVSS” the “polyreactivity (PSR sort gate)” value was “high polyreactivity”. With “QVQIVESGGGLVQAGGSLRLRCAASGRIFAYYAMGWYRQAPGKERELVAAISRSGVSTYYADSVKGRFTISRDNAKNTVYLQMNSLKPEDTAVYYCAARWRSGFTSGDYWGQGTQVTVSS” the “polyreactivity (PSR sort gate)” value was “low polyreactivity”. With “QVHLVESGGGLVQAGGSLRLSCAASGSIFRGYAMGWYRQAPGRERELVAAISRSGGSTYYADSVKGRFTISRDNAKNTVYLQRNSLKPEDTAGYYCAALLRGRYRMYYWGQGTQVTVSS” the “polyreactivity (PSR sort gate)” value was “high polyreactivity”. With “QVQLVESGGGLVQAGGSLRLSCAASGFIFGHYAMGWYRQAPGKERELVAGIISSGGSTHYADSVKGRFTISRDNAKNTVYLQMNSLKPEDTAVYFCAADVYRYYAGSRYYYWGQGTQVTVSS” the “polyreactivity (PSR sort gate)” value was “low polyreactivity”. With “QVQLVESGGGLVQAGGSLRLSCAASGRIFYYNVMGWYRQAPGKERELVASISYSSTRTYYADSVKGRFTISRDNAKNTVYLQMNSLKPEDTAVYYCAVDTYAYRGVSYWSERTYYYWGQGTQVTVSS” the “polyreactivity (PSR sort gate)” value was “low polyreactivity”. In the case of “HVQLVESGGGLVQAGGSLRLSCAASGRIFRYAMAWYRQAPGNETELVAAISSSGGGTYYADSVKGRFTISRDNAKNTVNLQMNSLKREDTAVYYCIAEYGWRFDYWGQGTQVTVSS”, the “polyreactivity (PSR sort gate)” value is reported as “high polyreactivity”. In the case of “QVQLVESGGGLVQAGGSLRLSCAASGSTLPPNAMGWSRQAPGKERELVAAISYSGDSTHYADSVKGRFTISRDNAKNTVYLQMNSLKPEDTAVYYCYASSPGAVPVYDYDYWGQGTQVTVSS”, the “polyreactivity (PSR sort gate)” value is reported as “low polyreactivity”. With “QVQLVESGGGLVQAGGSLRLSCAASGRISYGYAMGWYRQAPGKERELVAAISRSGGTTYYADSVKGRFTISRDNAKNTVYLQMNSLKPEDTAVYYCNRVWYATDFVNTMGYWGQGTQVTVSS” the “polyreactivity (PSR sort gate)” value was “low polyreactivity”. For “QVQLVESGGGLVQAGGSLRLSSAASGNIFPAYPMGWYRQAPGKERELVAAISKSGGRTYYADSVKGRFTISRDNAKNTVYLQMNSLKPEDTAVYYALLTVLRAVPYSVRYDYWGQGTQVTVSS”, the “polyreactivity (PSR sort gate)” value was “high polyreactivity”. In the case of “QVQLVESGGGLVQAGGSLRLSCAASGSIFRTNAMGWYRQAPGKERELVAAITGRGGSTYYADSVKGRFTISRNNAKNTVYLQMNSLKPEDTAVYDCAADTWYGYRYKYDYWGQGTQVTVSS”, the “polyreactivity (PSR sort gate)” value is reported as “high polyreactivity”. For “QVQLVESGGGLVQAGGSLRLSCAASGLNFGRNAIGWYRQAPGKERELVAAISLSGGRTSYADSVKGRFTISRDNEQNTVYLQMNSVKPEDTAFYFCASRSDVYTHDYWGQGTQVTVSS”, the “polyreactivity (PSR sort gate)” value was “high polyreactivity”. In the case of “QVQLVQSGGGLVQAGGSLRLSCDASGSMFLVYAMGWYRQAPGKERELVAAISRSGRTYADSVKGRFTISRDNAKNTVYLQMNSLKPEDTAVYYCAAGTKRRFEGDYWVQGTQVTVSS”, the “polyreactivity (PSR sort gate)” value is reported as “high polyreactivity”. For “QVQLVESGGGLVQAGGSLRLSCAASGRTFSGYAMGWYRQAPGKERELVAAIRGGSTNYADSVKGRFTISRDNAKNTVYLQMNSLKPEDTAVYYCNAKRSWVWAGYDYWGQGTQVTVSS”, the “polyreactivity (PSR sort gate)” value was “high polyreactivity”. In the case of “QVQLGESGGGLVQAGGSLRLSCAASGITFPGYAMGWYRQAPGKERELVARISRSGGSTYYADSVKGRFTISRDNAKNTVYFQMNSLKPEDTAVYYCAAGAYRSGGYSFDDWGQGTQVTVSS”, the “polyreactivity (PSR sort gate)” value is reported as “low polyreactivity”. In the case of “QVQLVESGGGLVQAGGSLRLSCAASGSTFTNYAMGWYRQAPRKERELVAAITSVGSTYYADSVKGRFTISRDNAKNTVYLQMNSLKQEDTAVYYCNVVYRDQYNYWGQGTQVTVSS”, the “polyreactivity (PSR sort gate)” value is reported as “low polyreactivity”. In the case of “QVQLVESGGGLVQAGGSLRLSFAASGFIFYRNTMGWYRQAPGKERELVAGITSGGRTNYADSVKGRFTISRDNAKNTVYLQMNSLKPEYTAVYYCNRVVYTYISTGSRHGRYNYWGQGTQVTVSS”, the “polyreactivity (PSR sort gate)” value is reported as “high polyreactivity”. In the case of “QVQLVESGGGLVQAGGSLRLSCAASGSIFWPYAMGWYRQAPGKDRELVATITWTGGSTYYADSVKGRFTISRDNAKNTVYLQMNSLKPEDTAVYYCAAAGYYGYGYDYWGQGTQVTVSS”, the “polyreactivity (PSR sort gate)” value is reported as “low polyreactivity”. In the case of “QVPLVESGRGLVQAGGSLRLSCAASGFIFKYYAMGWYRQAPGKEGELVASISSSGSSTYYADSVKGRFTISRDNAKNTVYLQMNSLKAEDTAVNYCNTVTYGPSAYDYLGQGTQVTVSS”, the “polyreactivity (PSR sort gate)” value is reported as “low polyreactivity”. For “QVQLVESGGGLVQAGGSLRLSCAASGSTFYRNAMGWYRQAPGKERELVAAISRGSRTYYADSVKGRFTISRDNAKNTVYLQMNSLKPEDTAVYNCAARAGARDTLHDYWGQGTQVTVSS”, the “polyreactivity (PSR sort gate)” value was “high polyreactivity”. With “QVQLVESGGGLVQAGGTLRLSCADSGSTFAGNGMGWYRQAPGKERQLVAGIDVTGGSTYYADSVKGRFTISRDNAKNTVYLQMNSLKPEDTAVYYCAARVVRYGYKYYYWGQGTQVTVSS” the “polyreactivity (PSR sort gate)” value was “low polyreactivity”. In the case of “QVHLVESGGGLVQAGGSLRLSWAASGRNFTRYAMGWYSQAPGKERELVASIRHSGGSTYYADSVKGRFTISRDNAKKTVYLLINSLKPEDTADFYCAARGKKGTRYKYNYWGQRTQVTVSS”, the “polyreactivity (PSR sort gate)” value is reported as “high polyreactivity”. For “QVQLVESGGGLVQAGGSLRLSCAAAGRIFGINALGWYRQAPGKERELVAAISWRSGSTYYADSVKGRFTISRDNAKNTVYLQMNSLKPEATAVYYCAARYFVRNYYQNDYWGQGTQVTVSS”, the “polyreactivity (PSR sort gate)” value was “low polyreactivity”. For “QVQLVESGGGLVQAGGILRLSCAASGITFKPYGMGWYRQAHGKESELVADITSGGITYYADSVKGRFTISRDNAKNTVYLQMNSLIAEDTAVYFCATGDLFVYYWGYVVRLYDFWGQGTQVTVSS”, the “polyreactivity (PSR sort gate)” value was “low polyreactivity”. In the case of “QVQLVESGGGLVQAGGSLRLSCAASGSIFVYNAMGWYRQAPGKERELVARITGRGGRTYYADSVKGRFTISRDNAKNTVYLQMNSLKPEDTAVYYCAAAKYGDYRGSPYKYGYWGQGTQVTVSS”, the “polyreactivity (PSR sort gate)” value is reported as “high polyreactivity”. In the case of “QVQLVESGGGLGQAGGSLRLSCAASGFTFRTNAMGWYRQAPGKEREFVAAISWSGGRTYYADSVKGRFTISRDNAKNTVYLQMNSLKPEDTAVYYCNADPFHWYYTNMYYWGQGTQVTVSS”, the “polyreactivity (PSR sort gate)” value is reported as “high polyreactivity”. For “QVQLVESGGGLVQAGGSLRLSCAASGRTFWWNAMAWYTQAPGKERELVAVISKRGGTTYYADSVKGRFTNSRDNAKNTVYLPMNSLKPEDTAVYVFAADQQSHYGYWGQGTQVTVSS”, the “polyreactivity (PSR sort gate)” value was “high polyreactivity”. For “QVQIVESGRGLFQAGGSLRLSCAASGSIFRFNVMGWYRPATGKECELVASISDSGDNTNYADSVKGRFTISGDNAKNPVDLLMNSLKPEDTAVYYCAARGSRWYIAVDYRGQGTQVTVSS”, the “polyreactivity (PSR sort gate)” value was “low polyreactivity”. In the case of “QVQLVESCGGLVQAGGSLRLSCDASGSIFIKKTMGWYRQAPGKEREMVAAISWSGGSTYYADSVKGRFTISRDNAKNTVYLQMNSLKPEDTAVYYCNAYYFWRTWFDTYDYWGQGTQVTVSS”, the “polyreactivity (PSR sort gate)” value is reported as “high polyreactivity”. In the case of “QVQLEESGGGLVQSGGSLRLSCAASGSIFYGYTMGWYRQAPGKEMEFVAAITGSGGSTYFADSVKGRFTISRDNAKKTVYLQMNSLKPEDTSVYYCAARRYVNRRYDYWGQGTQVTVSS”, the “polyreactivity (PSR sort gate)” value is reported as “high polyreactivity”. With “QVQLVESGGGLVQAGGSLRLSCAASGSIFSRYAMGWYRQAPGKEMELVAAISSRGGSTSYADSVKGRFTISRDYAKNTVYLQMNSLQPEDTAVYYCGRVYYAGPRLYRDFGFDYWGQGTQVTVSS” the “polyreactivity (PSR sort gate)” value was “high polyreactivity”.
